# Data: the nanobody polyreactivity screen of Harvey et al. (2022)
# Assay: yeast display, Sf9 membrane polyspecificity reagent, FACS + sequencing; frameworks hold sequencing errors
# Summary of the method: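 Galactose induction of a Saccharomyces cerevisiae BJ5465 synthetic nanobody display library ran 36–48 hours. The cells were then stained for 1 hour at 4 °C with 10% biotinylated, detergent-solubilized Sf9 membrane reagent, pulled down on streptavidin microbeads and FACS-sorted into low and high (top ~1%) gates on expression and reagent-binding fluorescence. Labels for polyreactivity follow the gate of origin.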
row,Sequence,polyreactivity (PSR sort gate)
1,QVQLVESGGGLVQAVGSLRLSCAASGRTFWANTMGWYRQAPGKERELVAAISKRGGSTYYADSVKGRFTISRDNAKNTVYLQMNSLKPEDTAVYYCNADKSGWYDYWGQGTQVTVSS,high polyreactivity
2,QVQLVESGGGLVQAVGSLRLSCAASGRTIAGYTMGWYRQARGQERELVAAISGRGGSTYYADSVKGRYTISRDNAKNTVYLQMNSLKPEDTAVYYCAAYTQGYWGRGRYGYCGQGTQVTVSS,high polyreactivity
3,QVQLVESGGGLVQAVGSLRLSCAASGRTSPRNAMGWYRQAPGKERELVAAINRTGGTTYYSDSVKGRFTISRDNAKNTVYLQMNSLIPEDTAVYYCAADVWVSTSGDWFRYDYWGQGTQVTVSS,high polyreactivity
4,QVQLVESGGGLVQAVGSLRLSCAASGSIFPDNAMGWYRQAPRKERELVASISWSGGSTYYADSVKGRFTISRDNAKNPVYLQRNSLKPEDTAVYYCARTYYWYLRVDYWGQGTQVTVSS,low polyreactivity
5,QVQLVESGGGLVQAVGSLRLSCAASGSIFTPYAMGWYRQAPGKERELVAAISGSGGSTRYADSVKGRFTISRDNATNTVYLQMNSLKPEDTAVYYCAADRYTYIWYHIYDYWGQGTQVTVSS,low polyreactivity
6,QVQLVESGGGLVQAVGSLRLSCAASGSTFREYTMGWYRQAPGKERELVAAITNSGGSTYYADSVKGRFTISRDNAKNTVYLQMNSLKPEDTAVYYCAAEGRYFYFTVKMDYWGQGTQVTVSS,low polyreactivity
7,QVQLVESGGGLVQAVGSLRLSCAASGSTFWFNAMGWYRQAPGKERELVAAIPSRGGYTYYADSVKGRFTISRDNAKNTVYLQMNSLKPEDTAVYYCAADYRYSSRKVFHFDYWGQGTQVTVSS,low polyreactivity
8,QVQLVESGGGLVQEGASLRLICAASGRTSYRYAMGWNRQAPGKERELVAAISFGGGSTYYADSVKGRFTISRDYAKNTVYLQMNSLKPEDTAVYYCATDRVKYRNIYTDTGFDYWGQGTQVTVSS,high polyreactivity
9,QVQLVESGGGLVQEGGSLRLSCAASASIFRYNAMGWYRQAPGKERELVAAITSRDGSTYYADSVKGRFTISRDNAQNTVYFQMNSLKPEDTAVYYCAVQPDSGNYDSGIYDRVGMDYWGQGTQVTVSS,low polyreactivity
10,QVQLVESGGGLVQEGGSLRLSCAASGFIFAWYDMGWYRQAPGKERELVAAISYYGGSTYYADSVKGRFTISRDNAKNTVYLQMNSLKPVDTAVYYCIKVSRGGSYGDAFDYWGQGTQVTVSS,high polyreactivity
11,QVQLVESGGGLVQEGGSLRLSCAASGFIFRYYAMGWYRQAPGKERELVAAISSSGGSTYYADSVKGRFTISRDNAKNTVYLQMNSLKPEDTAVSYCNAYNYGYIGYGYNYWGQGTQVTVSS,high polyreactivity
12,QVQLVESGGGLVQEGGSLRLSCAASGFTFVSNAMGWYRQAPGKERELVAAITYSGTRTYYADSVKGRFTISRDNAKTTVYLQMNSLKPEDTAVYYCAARRGYASAYYYWGQGTQVTVSS,high polyreactivity
13,QVQLVESGGGLVQEGGSLRLSCAASGFTLHVYAMGWYRQAPGKERELVAAISTGGNTNYADSVKGRFTISRDNAKNTVYLQMNSLKPEDTAVYYCNARYTSRRSRRPYYYWGQGTQVTVSS,high polyreactivity
14,QVQLVESGGGLVQEGGSLRLSCAASGITFAFYTMGRYRQAPGKERELVAAISYSGGRTYYADSVKGRFTISRDNAMNTVYLQMNSLKAEDTAVYYCAVETWWDYDYWGQGTQVTVSS,high polyreactivity
15,QVQLVESGGGLVQEGGSLRLSCAASGITFSVYTMGRYRQAPGKERELVASITRTGGSTYYADSVKGRFTISRDNAKNTVYLQMNSLNPEDTAVYYCAARRTVVTGRYYWGQGTQVTVSS,high polyreactivity
16,QVQLVESGGGLVQEGGSLRLSCAASGLIFGRYAMGWYRQAPGKERELVAAISSSGVRTYYADSVKGRFTISRDNAKNTVYLQMNSLKPEDTAVYYCAAAYWSSRDDTVIKRYYWGQGTQVTVSS,high polyreactivity

row,Sequence,polyreactivity (PSR sort gate)
1,QVQLVESGGGLVQEGGSLRLSCAASGLTFLNNAMGWYRPAPGKERELVAAISDGGSTNYADSVKGRFTISRDNAKNTVYLQMNSMKRDDTAVYYCAAVYTSASYGSWGQGTQVTVSS,low polyreactivity
2,QVQLVESGGGLVQEGGSLRLSCAASGNTFKYYSMGWYRQAPGKERELVAAITWNGARTYYADSVKGRFTISRDNAKNTVYLQMNSLKPEDTAVYYCNARQGYRFDYWGQGTQVTVSS,high polyreactivity
3,QVQLVESGGGLVQEGGSLRLSCAASGRIFGVNAMGWYRQAPGKERELVAAIFSGGSTYYADSVKGRFTISRDNAKNTVYLQMNSLKPEDTAVYYCAARFARYDWSMYYWGQGTQVTVSS,low polyreactivity
4,QVQLVESGGGLVQEGGSLRLSCAASGRNFDVYAMGWYRQAPGKERELVAAITWDGGSTYYADSVKGRFTISRDNAKNSVYLQMNSEKPEDKAVYYCAAEPVYTQRKGYDYWGQGTQVTVSS,low polyreactivity
5,QVQLVESGGGLVQEGGSLRLSCAASGRTFWYYGMGWYRQAHGKERELVAAISRSGGRTSYADSVKGRFTISRDNAKNTVYLQMIRLKPEDTAVYYCATDGYYRYGYWGQGTQVTVSS,high polyreactivity
6,QVQLVESGGGLVQEGGSLRLSCAASGRTICLNDMGWYRQAPGKERELVAGITRSGGSTYYADSVKGRFTISRDNAKNTVYLQMNSLKPEDSAVYYCAADFKPLYYDEYDYWGQGTQVTVSS,low polyreactivity
7,QVQLVESGGGLVQEGGSLRLSCAASGSIFFYYAMGWYRPAPGKERELVAAIRSGTSTNYADSVKGRFTISLDNAKNTVYLQMNSLKPEDTAVYYCNKDTDWSWSAITSPIFDYWGQGTQVTVSS,low polyreactivity
8,QVQLVESGGGLVQEGGSLRLSCAASGSIFGRNAMGWYRQAPGKERELVAAITSRTGSTFYADSVKGRFTISRDNAKNTDYLQMNSLKPEATAVYYCKAAGPAFSYYHWLWGDYNSWGQGTQVTVSS,low polyreactivity
9,QVQLVESGGGLVQEGGSLRLSCAASGSIFGWYAMGWYRQAPGKEWELVAAIRRGGSTNYADSVKGRFTISRDNAKNTVYLQMNSLKAEVTAVYYCAAGKSGYSKRIFRYSFDYWGQGTQVTVSS,high polyreactivity
10,QVQLVESGGGLVQEGGSLRLSCAASGSIFVNNGMGWYRQAPGKERELVAAIRLSTGSTYYADSVKGRFTISRDNAKNTVYLQMNSLKPEDTAVYFCNAVRYPRLMYYWGQGTQVTVSS,high polyreactivity
11,QVQLVESGGGLVQEGGSLRLSCAASGSSFCSYAMGRYRQAPGKERELVAAISSSGDSTYADSVKGRFTMSRDNAKNTVYLQMNSLKPEDTAVYYCAVGGAGSDDYWGQGTQVTVSS,low polyreactivity
12,QVQLVESGGGLVQEGGSLRLSCAASGSTFNAYAMGWYRQAPGKERELVATINDDGGTTYYADSVKGRFTISRDNAKNTVYLQMNSLKPEDTAVYYCAASGFDTSYETAPSDSWGYDYWGQGTQVTVSS,low polyreactivity
13,QVQLVESGGGLVQEGGSLRLSCAASGSTFRYYAMGWYRQAPGKERELVASISSSGGNTYGDAVKGRFTISRDNAKNTVYLQMNSLKPEDTAVYYCNADWALLYSPPYTYRYGYWGQGTQVTVSS,low polyreactivity
14,QVQLVESGGGLVQEGGSLRLSCAASGSTFSIYAMGWYRQAPGKERELVAGISGSGGSTYYADSVKGRFTISRDNAKNTVYLQMNSLKPEDTAVYYCAKRVLWGLDYCGQGTQVTVSS,low polyreactivity
15,QVQLVESGGGLVQEGGSLRLSCAASGYTFGRYFMGWYRQAPGKEREFVAAISRGGGSTYYADSVKGRFTISRDNAKNTVYLQMNSLKPEDTAVYYCDTRSSNAEYWGQGTQVTVSS,high polyreactivity
